Molecular target: T1, Taxol-stabilized microtubules polymerised from purified porcine brain tubulin (porcine, UniProt P02550 1-451; P02554 1-439)
T1 construct: P81947 was used only for the MD model; Q6B856 was used only for the MD model; Polymer of α/β-tubulin heterodimers (13- and 14-protofilament MTs in cryo-EM); brain tubulin is probably a mix of isotypes; Concentrations are α/β-tubulin heterodimer molarity; also called MTs; MT; source: tubulin purified from porcine brain; polymerised in vitro with GTP and paclitaxel
Experiment: co-sedimentation; tubulin co-sedimentation: taxol-stabilized MTs (varied, α/β-tubulin heterodimer molarity) with 1 µM purified N-clamp, 0.25 mg/ml BSA, BRB80-MT buffer (80 mM PIPES, 1 mM MgCl2, 1 mM EGTA, 12.5% glycerol, pH 6.8), 20 min at room temperature, 200,000 g 10 min 27 °C; SDS-PAGE densitometry of pellet; apparent Kd from a quadratic fit
Conditions: both partners purified

- Kd: 2900 nM
B1: D. melanogaster augmin N-clamp with Dgt4 lacking its N-terminal extension (complex)
chain 1: MSDAVDKMLAGMAANRQTMNRQLAKIDEIMERSNNTLLHIESNSKAFSQNVALSETQKMYNLRPEAEMTLSKILENFKLLMSSSDQREETYSALEGCLAYRHRVEHLGSSVRKLVALYDTVGQMKNSQEEQYASEDSP
chain 2: MDRTIIAPWKAEEKEQSEKLHRKLQGLALVHPLPDELRKLIAWDMFLKPNQVAFVHVMHYLFRLLDPAEFKRRFFWPITDKKSEANFRSSTVEYLKHLNEKHQLHWANIKSYLVVMPGGMRFINFLLEFVGFVIQELIKQREKSLGLEAGTPNVSAKVMARQNAVMKEYASSYVVNLEENTALLRDKTQKIRRLMADLSADMGVPEEQLADDGFLDEFEATAALGVERVITQPTERKFDLEASLCGLKEAIDLFQVKQAENNQSKEAVEKALRGMRVLFD
chain 3: METNVDFSSISSKLYRKYAQHVRNLKDVCVSKTVMKPGAFFDSLQQMMEEEAAATTPPRDLSSVADYAELFKTLEEYPANLQKMPKKRELQRTNSTLLRGADESVAMGINTSNVSLSLTRLEEQRSAVDVYNDFKGFQRKLAKIYDEAAALDTTESIYKQKLTQLHGFAQQLEKLMPTGGESPPDAFTSEQ
chain 4: MDDIQYLLHLEAMRRFQEDSRNVKRQVEEQVRIWLDAKCEYQRDFGRLARLLKCGALQAAVDAHRVSDVNQVDQAAKDIASLRSKLGS
modifications: Dgt4-deltaNT start (MDDIQY) read from the printed N-del primer, Dgt4 end from 9RPD entity 1; Dgt6 from 9RPD entity 2; Msd5 end is estimated from the length of the 9RPD fusion entity; Msd1 is assumed …
